This data set concerns Escherichia coli TOP10. Kind of data set: shrunken log2 fold change of peptide-encoding DNA abundance (4.5 h post-induction vs induction); higher = less antimicrobial activity (less host growth inhibition). Conditions: time post-induction: 4.5 h; library: site-saturation at positions 5, 18, 19, 20.
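Note: peptides expressed intracellularly from a pBAD plasmid library in pooled LB shake-flask culture, induced with 0.3% L-arabinose, DNA abundance read by NGS, three biological replicates, DESeq2 with apeglm shrinkage.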

Turning to RRIRMRPPRLPRPRPRPIQRPRP, the “shrunken log2 fold change” value was 0.544. Take RRIRCRPPRLPRPRPRPYRLPRP: the “shrunken log2 fold change” value is -0.0743. For RRIRFRPPRLPRPRPRPCNNPRP, the “shrunken log2 fold change” value was -0.82. With RRIRHRPPRLPRPRPRPYAKPRP, the “shrunken log2 fold change” value was -0.0134.

Regarding RRIRVRPPRLPRPRPRPGVKPRP, the “shrunken log2 fold change” value stood at 0.303. With RRIRWRPPRLPRPRPRPQHAPRP the figure was -0.0577. Take RRIRSRPPRLPRPRPRPHTVPRP: the “shrunken log2 fold change” value is -0.218.

Regarding RRIRLRPPRLPRPRPRPVAKPRP, the “shrunken log2 fold change” value worked out at 0.123. Take RRIRLRPPRLPRPRPRPAILPRP: the “shrunken log2 fold change” value is 0.0331. With RRIRWRPPRLPRPRPRPPLKPRP, the “shrunken log2 fold change” value was determined as 0.415.

RRIRIRPPRLPRPRPRPDADPRP: the “shrunken log2 fold change” value was determined as 0.194. Consider RRIRGRPPRLPRPRPRPGYQPRP, for which the “shrunken log2 fold change” value was -0.0619. With RRIRPRPPRLPRPRPRPWWFPRP, the “shrunken log2 fold change” value was -0.133. For RRIRRRPPRLPRPRPRPIQHPRP, the “shrunken log2 fold change” value came out at 0.0238. RRIRDRPPRLPRPRPRPWYTPRP: the “shrunken log2 fold change” value was -0.0848. With RRIRHRPPRLPRPRPRPLSPPRP, the “shrunken log2 fold change” value is -0.0711. With RRIRVRPPRLPRPRPRPRYKPRP the figure was -0.131; with RRIRCRPPRLPRPRPRPPMHPRP, 0.183; with RRIRIRPPRLPRPRPRPHMHPRP, -1.05. Regarding RRIRGRPPRLPRPRPRPGWNPRP, the “shrunken log2 fold change” value came out at 0.486. With RRIRYRPPRLPRPRPRPMWDPRP the figure was 0.0162; with RRIRDRPPRLPRPRPRPCHYPRP, -0.639; with RRIRDRPPRLPRPRPRPHCTPRP, -0.0502. Turning to RRIRSRPPRLPRPRPRPWYHPRP, the “shrunken log2 fold change” value is -0.45.

For RRIRYRPPRLPRPRPRPCCGPRP, the “shrunken log2 fold change” value was -0.33. For the sequence RRIRKRPPRLPRPRPRPGDTPRP, the “shrunken log2 fold change” value was found to be 0.0879. Turning to RRIRSRPPRLPRPRPRPNFVPRP, the “shrunken log2 fold change” value was -0.0465. In the case of RRIRWRPPRLPRPRPRPCFNPRP, the “shrunken log2 fold change” value was -0.382.

RRIRRRPPRLPRPRPRPESPPRP: the “shrunken log2 fold change” value came to 0.5.

As for RRIRKRPPRLPRPRPRPFVRPRP, the “shrunken log2 fold change” value was determined as 0.00981. As for RRIRTRPPRLPRPRPRPMYAPRP, the “shrunken log2 fold change” value is -0.121. Regarding RRIRTRPPRLPRPRPRPGQQPRP, the “shrunken log2 fold change” value is -0.0603. As to RRIRIRPPRLPRPRPRPELIPRP, the “shrunken log2 fold change” value stood at 0.0381. On to RRIRLRPPRLPRPRPRPSMCPRP, for which the “shrunken log2 fold change” value was -0.196. On to RRIRPRPPRLPRPRPRPRNRPRP, for which the “shrunken log2 fold change” value stood at 0.516. RRIRCRPPRLPRPRPRPGPLPRP: the “shrunken log2 fold change” value worked out at 0.213.

With RRIRTRPPRLPRPRPRPNRYPRP, the “shrunken log2 fold change” value was -0.19. Take RRIRLRPPRLPRPRPRPVVLPRP: the “shrunken log2 fold change” value was -0.0303. For the sequence RRIRNRPPRLPRPRPRPAFEPRP, the “shrunken log2 fold change” value was 0.0155.

As to RRIRTRPPRLPRPRPRPGGMPRP, the “shrunken log2 fold change” value was -0.117. On to RRIRARPPRLPRPRPRPQTCPRP, for which the “shrunken log2 fold change” value was 0.246. Turning to RRIRGRPPRLPRPRPRPLREPRP, the “shrunken log2 fold change” value is 1.85. For the sequence RRIRGRPPRLPRPRPRPVCLPRP, the “shrunken log2 fold change” value is 1.1.

For the sequence RRIRKRPPRLPRPRPRPVVHPRP, the “shrunken log2 fold change” value came out at 0.122. Turning to RRIRRRPPRLPRPRPRPVYYPRP, the “shrunken log2 fold change” value is -0.223. For RRIRVRPPRLPRPRPRPIMKPRP, the “shrunken log2 fold change” value is -0.473. The result for RRIRNRPPRLPRPRPRPFAKPRP reads 0.637; that for RRIRSRPPRLPRPRPRPRALPRP, 0.0323. With RRIRSRPPRLPRPRPRPPKMPRP the figure was 0.00423; with RRIRMRPPRLPRPRPRPGTEPRP, 0.562; with RRIRWRPPRLPRPRPRPTRLPRP, 0.411. On to RRIRVRPPRLPRPRPRPKTTPRP, for which the “shrunken log2 fold change” value was -0.0198. In the case of RRIRLRPPRLPRPRPRPRGIPRP, the “shrunken log2 fold change” value is -0.0811. Turning to RRIRTRPPRLPRPRPRPSNPPRP, the “shrunken log2 fold change” value was -0.663. With RRIRERPPRLPRPRPRPHQIPRP the figure was -0.372; with RRIRKRPPRLPRPRPRPWWNPRP, 0.0316; with RRIRHRPPRLPRPRPRPGKCPRP, -0.00911. Take RRIRPRPPRLPRPRPRPRLGPRP: the “shrunken log2 fold change” value was determined as 0.586. As to RRIRVRPPRLPRPRPRPPQWPRP, the “shrunken log2 fold change” value was determined as 0.353. With RRIRDRPPRLPRPRPRPSYKPRP the figure was -0.208; with RRIRQRPPRLPRPRPRPQMMPRP, -0.082.

With RRIRKRPPRLPRPRPRPNHDPRP, the “shrunken log2 fold change” value is -0.0524. In the case of RRIRTRPPRLPRPRPRPGDCPRP, the “shrunken log2 fold change” value was -0.195. Regarding RRIRKRPPRLPRPRPRPRQIPRP, the “shrunken log2 fold change” value turned out to be 0.298. With RRIRERPPRLPRPRPRPPLNPRP, the “shrunken log2 fold change” value was -0.192. Take RRIRCRPPRLPRPRPRPFNVPRP: the “shrunken log2 fold change” value is -0.146.

For the sequence RRIRYRPPRLPRPRPRPMRLPRP, the “shrunken log2 fold change” value was -0.039. RRIRKRPPRLPRPRPRPANHPRP: the “shrunken log2 fold change” value was -0.235. For the sequence RRIRIRPPRLPRPRPRPKQAPRP, the “shrunken log2 fold change” value stood at 0.0872. As to RRIRDRPPRLPRPRPRPQMCPRP, the “shrunken log2 fold change” value is -0.183. Turning to RRIRVRPPRLPRPRPRPVDKPRP, the “shrunken log2 fold change” value is -0.278. Turning to RRIRNRPPRLPRPRPRPSAGPRP, the “shrunken log2 fold change” value was -0.225. The result for RRIRTRPPRLPRPRPRPKWLPRP reads 0.247. The result for RRIRWRPPRLPRPRPRPVGLPRP reads 0.568; that for RRIRKRPPRLPRPRPRPPEEPRP, 1.79. In the case of RRIRGRPPRLPRPRPRPKGPPRP, the “shrunken log2 fold change” value was 0.331. With RRIRSRPPRLPRPRPRPLINPRP, the “shrunken log2 fold change” value is -0.0856. With RRIRWRPPRLPRPRPRPEKTPRP the figure was 0.191; with RRIRNRPPRLPRPRPRPLRMPRP, 0.361. In the case of RRIRSRPPRLPRPRPRPSHTPRP, the “shrunken log2 fold change” value was -0.572.

In the case of RRIRGRPPRLPRPRPRPAFMPRP, the “shrunken log2 fold change” value is 0.585. Turning to RRIRYRPPRLPRPRPRPYNKPRP, the “shrunken log2 fold change” value is -0.734.

In the case of RRIRWRPPRLPRPRPRPYHHPRP, the “shrunken log2 fold change” value was -1.02. Regarding RRIRQRPPRLPRPRPRPLWEPRP, the “shrunken log2 fold change” value was found to be 0.025. On to RRIRQRPPRLPRPRPRPKFWPRP, for which the “shrunken log2 fold change” value came to 0.104.

Take RRIRNRPPRLPRPRPRPYRAPRP: the “shrunken log2 fold change” value is -0.183. Regarding RRIRFRPPRLPRPRPRPGDTPRP, the “shrunken log2 fold change” value was -0.309.

In the case of RRIRERPPRLPRPRPRPDYSPRP, the “shrunken log2 fold change” value is -1.47. In the case of RRIRRRPPRLPRPRPRPEFAPRP, the “shrunken log2 fold change” value was determined as 0.129. RRIRRRPPRLPRPRPRPRVMPRP: the “shrunken log2 fold change” value worked out at 0.413. With RRIRVRPPRLPRPRPRPWHMPRP the figure was -0.672; with RRIRGRPPRLPRPRPRPWFQPRP, 0.0619; with RRIRNRPPRLPRPRPRPAHLPRP, 0.256. With RRIRCRPPRLPRPRPRPQHCPRP, the “shrunken log2 fold change” value is -0.287. With RRIRKRPPRLPRPRPRPWPYPRP the figure was -0.146; with RRIRYRPPRLPRPRPRPKYGPRP, -0.176; with RRIRLRPPRLPRPRPRPTRSPRP, 0.467. As for RRIRMRPPRLPRPRPRPDLVPRP, the “shrunken log2 fold change” value was found to be 1.01. On to RRIRQRPPRLPRPRPRPRQDPRP, for which the “shrunken log2 fold change” value was 0.243.

Turning to RRIRSRPPRLPRPRPRPGKNPRP, the “shrunken log2 fold change” value is -0.166.

Regarding RRIRDRPPRLPRPRPRPRLSPRP, the “shrunken log2 fold change” value came out at 0.286. With RRIRGRPPRLPRPRPRPRGEPRP, the “shrunken log2 fold change” value worked out at 1.04. Regarding RRIRQRPPRLPRPRPRPTIDPRP, the “shrunken log2 fold change” value is -0.0223. With RRIRFRPPRLPRPRPRPCKLPRP the figure was -1.48; with RRIRSRPPRLPRPRPRPDYNPRP, -0.622; with RRIRCRPPRLPRPRPRPPLLPRP, -0.0189.

Turning to RRIRIRPPRLPRPRPRPLKRPRP, the “shrunken log2 fold change” value was -0.0843. In the case of RRIRERPPRLPRPRPRPRVVPRP, the “shrunken log2 fold change” value is 0.069.

Regarding RRIRSRPPRLPRPRPRPDTRPRP, the “shrunken log2 fold change” value is -0.337. The result for RRIRSRPPRLPRPRPRPTMTPRP reads 0.391; that for RRIRHRPPRLPRPRPRPTLEPRP, 0.319. In the case of RRIRKRPPRLPRPRPRPQTIPRP, the “shrunken log2 fold change” value came out at 0.0582.

RRIRSRPPRLPRPRPRPKSQPRP: the “shrunken log2 fold change” value was found to be 0.164. The result for RRIRFRPPRLPRPRPRPNSPPRP reads -0.462; that for RRIRHRPPRLPRPRPRPAGNPRP, 0.023; that for RRIRIRPPRLPRPRPRPLFWPRP, -0.145.

Regarding RRIRPRPPRLPRPRPRPAWFPRP, the “shrunken log2 fold change” value was 0.117.

RRIRIRPPRLPRPRPRPDACPRP: the “shrunken log2 fold change” value worked out at 0.183. As for RRIRDRPPRLPRPRPRPDLWPRP, the “shrunken log2 fold change” value was -0.0295. The result for RRIRQRPPRLPRPRPRPSNTPRP reads -0.824; that for RRIRFRPPRLPRPRPRPKDGPRP, -0.184; that for RRIRQRPPRLPRPRPRPCFHPRP, -0.425. As to RRIRERPPRLPRPRPRPPMWPRP, the “shrunken log2 fold change” value was determined as 0.245.

Take RRIRMRPPRLPRPRPRPFRCPRP: the “shrunken log2 fold change” value was -0.0869. With RRIRVRPPRLPRPRPRPMCFPRP, the “shrunken log2 fold change” value is -0.178.

Values taken from the supplement of paper PMC9112550, “Optimization of the antimicrobial peptide Bac7 by deep mutational scanning” (BMC Biology, 2022).
